# Data reported in article doi:10.1101/2021.06.03.446569 (bioRxiv, 2021).
# Read-outs that look alike come from different tables or passages of the source. Ends that are not written are not given here. * marks the point of attachment. FITC = O=C1OC2(c3ccc(O)cc3Oc3cc(O)ccc32)c2ccc(NC(=S)*)cc21
# Tests used:
# Assay in all cases: fluorescence polarisation
# [1] = biological target: Human P300 KIX domain (EP300 KIX domain) (human) (UniProt Q09472)
# [2] = biological target: CBP KIX domain (CREBBP KIX domain) (human) (UniProt Q92793)
# [3] = biological target: Human P300 KIX domain (EP300 KIX domain) (human) (UniProt Q09472); remark: listed apart in the source
# [4] = biological target: CBP KIX domain (CREBBP KIX domain) (human) (UniProt Q92793); remark: listed apart in the source
# [5] = biological target: Human P300 KIX domain (EP300 KIX domain) (human, UniProt Q09472 565-652)
# [6] = biological target: CBP KIX domain (CREBBP KIX domain) (human, UniProt Q92793 585-672)
# Chain of CBP KIX domain (CREBBP KIX domain) (Q92793 585-672): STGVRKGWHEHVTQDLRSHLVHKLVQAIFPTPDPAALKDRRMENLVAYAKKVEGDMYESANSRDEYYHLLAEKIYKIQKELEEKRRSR
# Chain of Human P300 KIX domain (EP300 KIX domain) (Q09472 565-652): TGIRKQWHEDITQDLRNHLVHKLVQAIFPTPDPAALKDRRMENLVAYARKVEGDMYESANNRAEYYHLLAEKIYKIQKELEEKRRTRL
# Chain of Human P300 KIX domain (EP300 KIX domain) (human) (Q09472 565-652): as above
# Chain of CBP KIX domain (CREBBP KIX domain) (human) (Q92793 585-672): as the sequence (Q92793 585-672) above
Molecule,IC50 [1] [µM],IC50 [2] [µM],IC50 [3] [µM],IC50 [4] [µM],Kd [5] [µM],Kd [6] [µM]
"MLL28MYB30 (M/M) fusion peptide, purified",8.5,22,8.3,23,,
"SDDGNILPSDIMDFVLKNTPSMQAL (also: rhodamine label, position not given here) [Rhodamine-labelled MLL peptide (MLL25)]",,,,,40 ± 14,94 ± 11
{FITC}-KEKRIKELELLLMSTENELKGQQAL [FITC-labelled MYB peptide (MYB25)],,,,,3.8 ± 0.2,
